From article PMC5549892

Molecular target: BG505 SOSIP.664 gp140 envelope glycoprotein trimer (HIV-1 (BG505))
Assay: native gel or EMSA

BG505 SOSIP.664 gp140 envelope glycoprotein trimer (complex)
stoichiometry N: 3
